Assay results as given in paper PMC9346500 (EMBO Reports, 2022).

Legend:
[1] = target: T1, M1-linked tetraubiquitin (M1-Ub4) (UniProt P0CG48 1-76; P0CG48 1-76; P0CG48 1-76; P0CG48 1-76); experiment: NMR titration
[2] = target: HOTag6-G10-Ub (designed tetrameric ubiquitin construct); experiment: NMR titration
[3] = target: T1, M1-linked tetraubiquitin (M1-Ub4); experiment: fluorescence polarisation
ubiquitin (Ub) = ubiquitin (Ub) (UniProt P0CG48 1-76); experiment: fluorescence polarisation
[4] = target: HOTag6-G10-Ub (designed tetrameric ubiquitin construct); experiment: fluorescence polarisation

T1 sequence (P0CG48 1-304, one chain of several): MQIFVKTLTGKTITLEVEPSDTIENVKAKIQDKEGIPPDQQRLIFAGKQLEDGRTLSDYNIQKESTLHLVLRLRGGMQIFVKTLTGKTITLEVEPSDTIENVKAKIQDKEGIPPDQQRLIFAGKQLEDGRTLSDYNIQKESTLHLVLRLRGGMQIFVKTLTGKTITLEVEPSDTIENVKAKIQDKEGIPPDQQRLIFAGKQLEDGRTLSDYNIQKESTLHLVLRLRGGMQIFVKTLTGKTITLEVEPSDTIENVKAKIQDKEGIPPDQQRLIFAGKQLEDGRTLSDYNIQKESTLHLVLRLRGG

Row | Kd [1] [µM] | Kd [2] [µM] | Kd [3] [µM] | Kd (ubiquitin (Ub)) [µM] | Kd [4] [µM] | Binder
1 | 12.8 | 8.8 |  |  |  | UBQLN2 450–624 (domain or fragment, UniProt Q9UHD9 450-624, looked up) RAMQALMQIQQGLQTLATEAPGLIPSFTPGVGVGVLGTAIGPVGPVTPIGPIGPIVPFTPIGPIGPIGPTGPAAPPGSTGSGGPTGPTVSSAAPSETTSPTSESGPNQQFIQQMVQALAGANAPQLPNPEVRFQQQLEQLNAMGFLNREANLQALIATGGDINAAIERLLGSQPS
2 |  |  | 5.1 | 3.4 | 7 | fluorescently-labeled UBQLN2 450–624 (S624C, Alexa Fluor 488) (domain or fragment, UniProt Q9UHD9 450-624, looked up, Alexa Fluor 488 C5 Maleimide on the cysteine of S624C) RAMQALMQIQQGLQTLATEAPGLIPSFTPGVGVGVLGTAIGPVGPVTPIGPIGPIVPFTPIGPIGPIGPTGPAAPPGSTGSGGPTGPTVSSAAPSETTSPTSESGPNQQFIQQMVQALAGANAPQLPNPEVRFQQQLEQLNAMGFLNREANLQALIATGGDINAAIERLLGSQPC
